# From US20040220079
# T1: synthetic peptide Nch (VGSGVLLSRK)
# T1 chain: VGSGVLLSRK
# T2: synthetic peptide PS1-gamma (LVNMAEGD)
# T2 chain: LVNMAEGD
# T3: synthetic peptide derived from the APP beta-secretase site (SEVKM/DAEFR)
# T3 chain: SEVKMDAEFR
# T4: peptide derived from the processing site of presenilin 1 (SVNM/AEGD)
# T4 chain: SVNMAEGD
# T5: synthetic peptide derived from the APP beta-secretase site containing the Swedish mutation (SEVNL/DAEFR)
# T5 chain: SEVNLDAEFR
# Tests used:
# [1] = target: oxidized bovine insulin B chain, P01317
# [2] = target: T1, synthetic peptide Nch (VGSGVLLSRK)
# [3] = target: T2, synthetic peptide PS1-gamma (LVNMAEGD)
# [4] = target: T3, synthetic peptide derived from the APP …
# [5] = target: T4, peptide derived from the processing …
# [6] = target: T5, synthetic peptide derived from the APP …
# Sequence of oxidized bovine insulin B chain, P01317 (P01317 25-54): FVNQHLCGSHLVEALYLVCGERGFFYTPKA
protein,measurement,setting,value
M2pd (modified M2 containing amino acids from Ala-8p to Ala326) (protein) TQHGIRLPLRSGLGGAPLGLRLPRETDEEPEEPGRRGSFVEMVDNLRGKSGQGYYVEMTVGSPPQTLNILVDTGSSNFAVGAAPHPFLHRYYQRQLSSTYRDLRKGVYVPYTQGKWEGELGTDLVSIPHGPNVTVRANIAAITESDKFFINGSNWEGILGLAYAEIARPDDSLEPFFDSLVKQTHVPNLFSLQLCGAGFPLNQSEVLASVGGSMIIGGIDHSLYTGSLWYTPIRREWYYEVIIVRVEINGQDLKMDCKEYNYDKSIVDSGTTNLRLPKKVFEAAVKSIKAASSTEKFPDGFWLGEQLVCWQAGTTPWNIFPVISLYLMGEVTNQSFRITILPQQYLRPVEDVATSQDDCYKFAISQSSTGTVMGAVIMEGFYVVFDRARKRIGFAVSACHVHDEFRTAAVEGPFVTLDMEDCGYNIPQTDESTLMTIAYVMAAICALFMLPLCLMVCQWRCLRCLRQQHDDFADDISLLK,hydrolytic sites,[1],2 sites
same,hydrolytic sites,[2],3 sites
same,cleavage of proteins,Native proteins,Native proteins were not cleaved by M2pd
same,hydrolytic sites,[3],A single cleavage site was observed in synthetic peptide PS1-gamma
same,kcat/Km,[4],"kcat/Km, 39.9 s^-1M^-1"
same,Km,[5],"Km, 15.2 mM"
same,kcat,[5],"kcat, 0.67 s^-1"
same,kcat/Km,[5],"kcat/Km, 43.8 s^-1M^-1"
same,Km,[6],"Km, 1 mM"
same,fold increase of kcat/Km over native APP,[6],60-fold increase of kcat/Km over that for native APP
same,kcat,[6],"kcat, 2.45 s^-1"
same,kcat/Km,[6],"kcat/Km, 2450 s^-1M^-"
